Source: PMC12162048 (Blood Vessels, Thrombosis & Hemostasis, 2024)

T1: protein S, purified, P07225
T1 chain: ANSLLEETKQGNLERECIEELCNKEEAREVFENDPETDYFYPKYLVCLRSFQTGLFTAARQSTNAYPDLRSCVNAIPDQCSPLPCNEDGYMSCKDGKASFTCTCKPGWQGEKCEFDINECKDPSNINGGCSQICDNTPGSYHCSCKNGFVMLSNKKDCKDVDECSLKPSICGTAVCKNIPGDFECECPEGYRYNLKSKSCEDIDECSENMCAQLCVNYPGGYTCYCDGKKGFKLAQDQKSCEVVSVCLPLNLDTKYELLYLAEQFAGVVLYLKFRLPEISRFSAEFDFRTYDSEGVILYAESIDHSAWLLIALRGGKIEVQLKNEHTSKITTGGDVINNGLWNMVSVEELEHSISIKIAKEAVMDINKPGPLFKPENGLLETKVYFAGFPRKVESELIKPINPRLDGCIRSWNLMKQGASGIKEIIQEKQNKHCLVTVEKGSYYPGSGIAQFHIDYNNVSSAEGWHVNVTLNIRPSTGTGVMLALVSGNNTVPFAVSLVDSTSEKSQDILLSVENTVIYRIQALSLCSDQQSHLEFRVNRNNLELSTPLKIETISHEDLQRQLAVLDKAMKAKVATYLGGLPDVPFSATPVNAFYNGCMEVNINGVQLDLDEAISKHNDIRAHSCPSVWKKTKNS

B1: protein S, purified, P07225 42-676 (natural protein)
chain: T1 chain
B2: biotinylated protein S (natural protein)
chain: T1 chain
modifications: biotin (biotinylated, sites not stated)

Tests used:
[1] = molecular target: T1, protein S, purified, P07225; experiment: native gel or EMSA; details: remark: other sources report otherwise
[2] = molecular target: von Willebrand factor of plasma (human (endogenous in plasma), UniProt P04275 764-2813); experiment: ELISA

Binder	stoichiometry N [1]	fold change of the apparent interaction with MerTK against without MerTK [2] [fold]
B1	2	
B2		~2
